The text below walks through data of patent US20190083612A1 (RINAT NEUROSCIENCE, published 2019).

Assay [1] has as its target hu-FCGRIIa (hu-CD32a) 131R (human) (UniProt P12318). As to the kind of experiment: SPR (ProteOn NLC chip), 25 C, pH 7.4.
In assay [2] the target is hu-FCGRIIb (hu-CD32b) (human) (UniProt P31994). Briefly: SPR (ProteOn NLC chip), 25 C, pH 7.4.
Assay [3] deals with hu-FCGRIIa (hu-CD32a) 131H (human) (UniProt P12318). As to the kind of experiment: SPR (ProteOn NLC chip), 25 C, pH 7.4.
Chain of hu-FCGRIIa (hu-CD32a) 131H (human) (P12318 36-218): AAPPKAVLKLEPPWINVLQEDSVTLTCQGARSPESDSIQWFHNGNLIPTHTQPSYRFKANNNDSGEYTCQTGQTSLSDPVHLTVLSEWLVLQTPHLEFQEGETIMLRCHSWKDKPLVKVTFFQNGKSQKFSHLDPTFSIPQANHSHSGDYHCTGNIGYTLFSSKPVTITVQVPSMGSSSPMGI
For assay [4], the target named is hu-FCGRI (hu-CD64) (human) (UniProt P12314). As to the kind of experiment: SPR (ProteOn NLC chip), 25 C, pH 7.4.
Chain of hu-FCGRI (hu-CD64) (human) (P12314 16-288 limits assumed): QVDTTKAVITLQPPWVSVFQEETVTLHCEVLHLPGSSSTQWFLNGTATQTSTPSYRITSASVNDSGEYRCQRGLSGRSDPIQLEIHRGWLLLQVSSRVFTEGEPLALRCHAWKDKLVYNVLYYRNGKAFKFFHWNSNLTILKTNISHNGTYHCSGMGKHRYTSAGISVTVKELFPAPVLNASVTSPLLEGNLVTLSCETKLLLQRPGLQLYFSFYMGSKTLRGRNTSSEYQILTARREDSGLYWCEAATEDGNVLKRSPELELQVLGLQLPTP
The target of assay [5] is Cynomolgus Monkey-FCGRIIa (cynomolgus monkey). Briefly: SPR (ProteOn NLC chip), 25 C, pH 7.4, n = 3.
In assay [6] the target is Cynomolgus Monkey-FCGRIIIa 42S (cynomolgus monkey). As to the kind of experiment: SPR (ProteOn NLC chip), 25 C, pH 7.4, n = 3.
Assay [7] has as its target Cynomolgus Monkey-FCGRIIIa 42R (cynomolgus monkey) (UniProt Q8SPW2). Briefly: SPR (ProteOn NLC chip), 25 C, pH 7.4, n = 3.
For assay [8], the target named is Cynomolgus Monkey-FcRn (cynomolgus monkey) (UniProt Q8SPV9). Briefly: SPR (ProteOn NLC chip), 25 C, pH 5.9, n = 3.
Chain of Cynomolgus Monkey-FcRn (cynomolgus monkey) (Q8SPV9 24-297 limits assumed, form in doubt): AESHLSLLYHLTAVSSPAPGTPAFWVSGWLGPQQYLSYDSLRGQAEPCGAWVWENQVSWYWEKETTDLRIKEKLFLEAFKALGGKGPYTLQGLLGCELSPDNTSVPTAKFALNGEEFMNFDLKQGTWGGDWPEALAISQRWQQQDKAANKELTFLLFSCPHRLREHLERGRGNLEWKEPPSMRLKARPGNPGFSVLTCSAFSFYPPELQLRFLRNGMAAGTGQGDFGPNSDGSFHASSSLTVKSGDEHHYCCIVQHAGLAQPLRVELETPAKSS
Assay [9] has as its target hu-FcRn (human neonatal Fc receptor) (human) (UniProt P55899). Briefly: SPR (ProteOn NLC chip), 25 C, pH 5.9, n = 3.
In assay [10] the target is hu-FCGRI (hu-CD64) (human) (UniProt P12314). As to the kind of experiment: SPR (ProteOn NLC chip), 25 C, pH 7.4, n = 4.
In assay [11] the target is T1, mouse-PD-L2 (positive control of Example 12) (mouse, UniProt Q9WUL5 20-219, limits assumed).
T1 sequence (looked up): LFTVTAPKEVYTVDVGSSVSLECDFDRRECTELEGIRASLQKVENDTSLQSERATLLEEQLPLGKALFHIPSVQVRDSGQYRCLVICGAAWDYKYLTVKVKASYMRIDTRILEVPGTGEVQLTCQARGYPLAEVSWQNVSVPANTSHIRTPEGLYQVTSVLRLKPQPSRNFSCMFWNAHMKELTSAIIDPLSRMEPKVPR
Briefly: SPR, 25 C. (In general: In SPR one partner is held on a chip, and binding of the other changes the refractive index at the surface.)

Assay [12] deals with mouse-PD-L1 (positive control of Example 12) (mouse, UniProt Q9EP73 19-238, limits assumed). Briefly: SPR, 25 C.
In assay [13] the target is T2, human PD-1 (hPD-1) monomer (human, UniProt Q15116 25-167).
T2 construct: also called hu-PD-1; not shown: His tag (His-tagged monomer)
T2 sequence (Q15116 25-167 limits assumed): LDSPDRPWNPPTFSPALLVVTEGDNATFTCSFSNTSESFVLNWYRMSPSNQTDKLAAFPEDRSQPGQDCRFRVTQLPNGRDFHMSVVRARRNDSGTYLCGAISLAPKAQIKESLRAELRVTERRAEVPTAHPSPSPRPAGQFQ
Briefly: SPR, human PD-1, 37 C.

Assay [14] addresses T3, rat PD-1 on primary rat T cells (rat, UniProt D3ZIN8 25-287).
T3 sequence: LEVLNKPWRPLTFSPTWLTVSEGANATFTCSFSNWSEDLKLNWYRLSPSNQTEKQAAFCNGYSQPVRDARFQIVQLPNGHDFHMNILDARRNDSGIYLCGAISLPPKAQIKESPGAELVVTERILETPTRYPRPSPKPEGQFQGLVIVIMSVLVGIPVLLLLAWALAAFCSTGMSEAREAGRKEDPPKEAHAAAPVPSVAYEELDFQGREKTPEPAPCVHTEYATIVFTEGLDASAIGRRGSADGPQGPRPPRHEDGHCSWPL
As to the kind of experiment: flow cytometry, activated rat T cells. Background: Flow cytometry measures light scatter and fluorescence of single cells or particles in a stream.

Chain of hu-FCGRIIa (hu-CD32a) 131R (human) (P12318 36-218 H167R): as the sequence (P12318 36-218) above, with H132R counted along it
Chain of hu-FcRn (human neonatal Fc receptor) (human) (P55899 24-297 limits assumed, chain 1 of 2): as the sequence (Q8SPV9 24-297 limits assumed, form in doubt) above, with D39N, Q44E, S99G, G189S, N190S, M217L, T269S counted along it
Chain of hu-FcRn (human neonatal Fc receptor) (human) (chain, as listed by the source limits assumed, chain 2 of 2): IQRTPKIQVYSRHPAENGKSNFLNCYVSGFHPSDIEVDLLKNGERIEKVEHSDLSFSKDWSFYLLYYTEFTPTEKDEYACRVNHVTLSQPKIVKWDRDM
Chain of Cynomolgus Monkey-FCGRIIIa 42R (cynomolgus monkey) (Q8SPW2 17-208 limits assumed): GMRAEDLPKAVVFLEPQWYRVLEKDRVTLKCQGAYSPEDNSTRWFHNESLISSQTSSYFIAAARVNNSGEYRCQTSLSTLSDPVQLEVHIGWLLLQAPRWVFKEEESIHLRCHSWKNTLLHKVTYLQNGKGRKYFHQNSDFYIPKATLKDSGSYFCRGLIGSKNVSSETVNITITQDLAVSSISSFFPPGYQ
Chain of hu-FCGRIIb (hu-CD32b) (human) (P31994 46-217): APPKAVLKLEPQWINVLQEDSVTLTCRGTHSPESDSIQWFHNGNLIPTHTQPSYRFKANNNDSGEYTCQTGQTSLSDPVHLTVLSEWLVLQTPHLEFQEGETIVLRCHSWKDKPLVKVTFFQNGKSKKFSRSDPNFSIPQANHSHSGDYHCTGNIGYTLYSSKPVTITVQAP

As a reminder, the Kd is the constant that tells how readily two partners part at equilibrium. Low readings indicate a tighter complex, high ones a looser complex. By koff is commonly meant the rate constant with which the complex falls apart. Lower therefore signals slow dissociation. A word on the kon: it is a measure of how fast the partners come together. Regarding “Isotype-matched control, hu-IgG4 (antibody)”, the Kd in [1] stood at 400 nM; in [2] it was 700 nM; in [3], 3900 nM; in assay [5], 2600 nM; in assay [6] it was 1900 nM; in assay [7], 3200 nM. The Kd was 570 nM in assay [8], 820 nM in assay [9] and 0.177 nM in [10]. For the same molecule, the koff in assay [4] was 0.0018 s⁻¹. The same molecule registered a kon in assay [4] of 1e+06 M⁻¹ s⁻¹.

B1: rat-PD-1 (recombinant purified, Example 12) (receptor)
chain: LEVLNKPWRPLTFSPTWLTVSEGANATFTCSFSNWSEDLKLNWYRLSPSNQTEKQAAFCNGYSQPVRDARFQIVQLPNGHDFHMNILDARRNDSGIYLCGAISLPPKAQIKESPGAELVVTERILETPTRYPRPSPKPEGQFQGL
For the molecule B1, the binding result in assay [11] and in [12] was “binds” each time.

B2: mAb4 (antibody, V domains shown)
VH: QVQLVQSGAEVKKPGASVKVSCKASGYTFTSYWINWVRQAPGQGLEWMGNIYPGSSLTNYNEKFKNRVTMTRDTSTSTVYMELSSLRSEDTAVYYCARLLTGTFAYWGQGTLVTVSS
VL: DIVMTQSPDSLAVSLGERATINCKSSQSLWDSTNQKNFLTWYQQKPGQPPKLLIYWTSTRESGVPDRFSGSGSGTDFTLTISSLQAEDVAVYYCQNDYFYPLTFGGGTKVEIK
notes: Variable regions only
B2 had a Kd in assay [13] of 89 nM.

B3: Rat-PD-L1-Fc-Tag (Creative BioMart) (Fc fusion, not shown: a dimerising Fc or GST; small tags and cut ends)
chain: FTITAPKDLYVVEYGSNVTMECRFPVEQKLDLLALVVYWEKEDKEVIQFVEGEEDLKPQHSSFRGRAFLPKDQLLKGNAVLQITDVKLQDAGVYCCMISYGGADYKRITLKVNAPYRKINQRISMDPATSEHELMCQAEGYPEAEVIWTNSDHQSLSGETTVTTSQTEEKLLNVTSVLRVNATANDVFHCTFWRVHSGENHTAELIIPELPVPRLPHNRTH
With B3, in assay [14], the binding result is recorded as “binds”.
